# Substrate: CCCCCCCCCCCC(=O)O
# Test: MTAN/LuxS-coupled DTNB colorimetric methyltransferase assay
# Format: biochemical, Drosophila melanogaster
# Conditions: 500 μM SAM, 50 mM potassium phosphate pH 8.0, 30 °C, 3 μM enzyme, 5–200 μM lauric acid
protein,measurement,value
"DmJHAMT (Drosophila melanogaster) (protein, primers encode N-terminus MNQASLYQH and C-terminus QNLVKGIN-stop) MNQASLYQHANQVQRHDAKLILDEFASTMQWRSDGEDALLDVGSGSGNVLMDFVKPLLPIRGQLVGTDISSQMVHYASKHYQREERTRFQVLDIGCERLPEELSGRFDHVTSFYCLHWVQNLKGALGNIYNLLKPEGGDCLLAFLASNPVYEVYKILKTNDKWSTFMQDVENFISPLHYSLSPGEEFSQLLNDVGFVQHNVEIRNEVFVYEGVRTLKDNVKAICPFLERMPADLHEQFLDDFIDIVISMNLQQGENNEDQKFLSPYKLVVAYARKTPEFVNNVFLEPTHQNLVKGIN",Km,59 µM
same,kcat,0.0025 s⁻¹

# — paper PMC4823748, “Production of FAME biodiesel in E. coli by direct methylation with an insect enzyme” (Scientific Reports, 2016)
